Patent publication US20100061996

Target: pro-uPA (pro-urokinase-type plasminogen activator, single-chain zymogen form of uPA), P00749

Protein	cleavage of pro-uPA (SDS-PAGE, 1.5 uM pro-uPA, 15 nM plasmin)	k (first-order rate constant of pro-uPA activation) [min⁻¹]	kcat/Km of pro-uPA activation [M⁻¹ s⁻¹]
Lys-plasmin (protein) KVYLSECKTGNGKNYRGTMSKTKNGITCQKWSSTSPHRPRFSPATHPSEGLEENYCRNPDNDPQGPWCYTTDPEKRYDYCDILECEEECMHCSGENYDGKISKTMSGLECQAWDSQSPHAHGYIPSKFPNKNLKKNYCRNPDRELRPWCFTTDPNKRWELCDIPRCTTPPPSSGPTYQCLKGTGENYRGNVAVTVSGHTCQHWSAQTPHTHNRTPENFPCKNLDENYCRNPDGKRAPWCHTTNSQVRWEYCKIPSCDSSPVSTEQLAPTAPPELTPVVQDCYHGDGQSYRGTSSTTTTGKKCQSWSSMTPHRHQKTPENYPNAGLTMNYCRNPDADKGPWCFTTDPSVRWEYCNLKKCSGTEASVVAPPPVVLLPDVETPSEEDCMFGNGKGYRGKRATTVTGTPCQDWAAQEPHRHSIFTPETNPRAGLEKNYCRNPDGDVGGPWCYTTNPRKLYDYCDVPQCAAPSFDCGKPQVEPKKCPGRVVGGCVAHPHSWPWQVSLRTRFGMHFCGGTLISPEWVLTAAHCLEKSPRPSSYKVILGAHQEVNLEPHVQEIEVSRLFLEPTRKDIALLKLSSPAVITDKVIPACLPSPNYVVADRTECFITGWGETQGTFGAGLLKEAQLPVIENKVCNRYEFLNGRVQSTELCAGHLAGGTDSCQGDSGGPLVCFEKDKYILQGVTSWGLGCARPNKPGVYVRVSRFVTWIEGVMRNN	cleavage of pro-uPA by plasmin generated identical fragments and with a time-course similar to hepsin	0.0815	453000
matriptase protease domain (protein) VVGGTDADEGEWPWQVSLHALGQGHICGASLISPNWLVSAAHCYIDDRGFRYSDPTQWTAFLGLHDQSQRSAPGVQERRLKRIISHPFFNDFTFDYDIALLELEKPAEYSSMVRPICLPDASHVFPAGKAIWVTGWGHTQYGGTGALILQKGEIRVINQTTCENLLPQQITPRMMCVGFLSGGVDSCQGDSGGPLSSVEADGRIFQAGVVSWGDGCAQRNKPGVYTRLPLFRDWIKENTGV	–	0.0142	79000
